Source: US10772928B2, “Modulation and detection of a neuronal alternative splicing regulatory network for treatment and diagnosis of neurological disorders” (The Governing Council of the University of Toronto, priority 2014, dated 2020)

T1: nSR100 (Mus musculus, UniProt Q8BKA3)
T1 construct: host or cells: mouse N2A cells
T1 sequence (Q8BKA3 1-608): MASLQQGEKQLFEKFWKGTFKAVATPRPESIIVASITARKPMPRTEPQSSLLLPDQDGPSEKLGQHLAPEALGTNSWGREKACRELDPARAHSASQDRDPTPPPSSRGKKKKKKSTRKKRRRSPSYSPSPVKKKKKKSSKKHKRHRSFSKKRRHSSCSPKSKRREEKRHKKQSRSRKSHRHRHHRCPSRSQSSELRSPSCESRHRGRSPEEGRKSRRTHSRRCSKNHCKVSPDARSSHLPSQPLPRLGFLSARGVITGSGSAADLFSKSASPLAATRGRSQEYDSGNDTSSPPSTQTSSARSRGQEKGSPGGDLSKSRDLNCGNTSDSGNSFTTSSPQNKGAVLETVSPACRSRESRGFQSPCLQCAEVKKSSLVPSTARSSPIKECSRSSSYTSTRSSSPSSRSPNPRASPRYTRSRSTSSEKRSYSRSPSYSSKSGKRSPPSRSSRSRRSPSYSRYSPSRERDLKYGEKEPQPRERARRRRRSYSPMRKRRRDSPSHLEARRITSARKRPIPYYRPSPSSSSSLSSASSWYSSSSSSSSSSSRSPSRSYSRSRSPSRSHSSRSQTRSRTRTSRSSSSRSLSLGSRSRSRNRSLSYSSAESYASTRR

B1: Pgam5 (protein, UniProt Q8BX10 1-288, looked up)
Serine/threonine-protein …: MAFRQALQLAACGLAGGSAAVLFSAVAVGKPRGGGDADTRATEPPAWTGARAGRGVWDTNWDRREPLSLINLKKRNVESGEDELTSRLDHYKAKATRHIFLIRHSQYHVDGSLEKDRTLTPLGREQAELTGLRLASLGLKFNKIVHSSMTRAVETTDIISKHLPGVSRVSTDLLREGAPIEPDPPVSHWKPEAVQYYEDGARIEAAFRNYIHRADARQEEDSYEIFICHANVIRYIVCRALQFPPEGWLRLSLNNGSITHLVIRPNGRVALRTLGDTGFMPPDKITRS
B2: Snx8 (protein, UniProt Q8CFD4 1-459, looked up)
Sorting nexin-8: MTGRAMDPLPSPAVAAAAEAEADEEADPPATGPRTSQVTEWRALDPGRMQMPQGNPLLLSYTLQELLAKDTVQVELIPEKKGLFLKHVEYEVSSQRFKSSVYRRYNDFVVFHEVLLHKFPYRMVPALPPKRVLGADREFIEGRRRALKRFINLVARHPPFSEDVLLKLFLSFSGSDVQHKLKEAAQCVGDEFMNCKLAARAKDFLPADIQTQFAMSRELIRNVYNSFYKLRDRAERIASRAIDNAADLLIFGKELSALGSDTTPLPSWAALHLSTWGSLKQALKGLSVEFALLADRAAQQGKKEENDVVEKLNLFLDLLQSYKDLCERHEKGVLHKHQRALHKYGLMKRQMMSAAHGREPESVEQLESRIVEQENVIQTMELRNYFSLYCLHQETQLVHVYLPLTSHILGAFVNSQIQGHKEMSKVWNDLKPKLSCLFAGPHSVLTPPRSPQEDGVCPH
B3: Cdc5l (protein, UniProt Q6A068 1-802, looked up)
Cell division cycle 5-like …: MPRIMIKGGVWRNTEDEILKAAVMKYGKNQWSRIASLLHRKSAKQCKARWYEWLDPSIKKTEWSREEEEKLLHLAKLMPTQWRTIAPIIGRTAAQCLEHYEFLLDKTAQRDNEEETTDDPRKLKPGEIDPNPETKPARPDPIDMDEDELEMLSEARARLANTQGKKAKRKAREKQLEEARRLAALQKRRELRAAGIEIQKKRKKKRGVDYNAEIPFEKKPALGFYDTSEENYQALDADFRKLRQQDLDGELRSEKEGRDRKKDKQHLKRKKESDLPSAILQTSGVSEFTKKRSKLVLPAPQISDAELQEVVKVGQASEVARQTAEESGITNSASSTLLSEYNVTNNSIALRTPRTPASQDRILQEAQNLMALTNVDTPLKGGLNTPLHESDFSGVTPQRQVVQTPNTVLSTPFRTPSNGAEGLTPRSGTTPKPVTNATPGRTPLRDKLNINPEDGMADYSDPSYVKQMERESREHLRLGLLGLPAPKNDFEIVLPENAEKELEEREIDDTYIEDAADVDARKQAIRDAERVKEMKRMHKAVQKDLPRPSEVNETILRPLNVEPPLTDLQKSEELIKKEMITMLHYDLLHHPYEPSGNKKGKNVGFATNNSEHITYLEHSPYEKFSKEDLKKAQDALVQEMEVVKQGMSHGELSSEAYNQVWEECYSQVLYLPAQSRYTRANLASKKDRIESLEKRLEINRGHMTTEAKRAAKMEKKMKILLGGYQSRAMGLMKQLNDLWDQIEQAHLELRTFEELKKHEDSAIPRRLECLKEDVQRQQEREKELQQRYADLLMEKETLQAKF
B4: Snip1 (protein, UniProt Q8BIZ6 1-383, looked up)
Smad nuclear-interacting …: MKAGKSERERSGRRRHRSGDALTTVVVKQERLSPEPVAHRRPDAPAASLSPPAAEPGHSGHRGSRARSPAKKKSKSSGRRSKSPRTKRSQSPHYPMVKVKQEREDHPRRGREDRQHREPSEQEHRRARNSERDRHRGHSRQGRSSDERPVSGQDRDRDSQNLQAQEEERDFHNARRREHRQQNESAGSEAQEVIPRPAGNRSKEVPVKEKPSFELSGALLEDTNTFRGVVIKYSEPPEARIPKKRWRLYPFKNDEVLPVMYIHRQSAYLLGRHRRIADIPIDHPSCSKQHAVFQYRLVEYTRADGTVGRRVKPYIIDLGSGNGTFLNNKRIEPQRYYELKEKDVLKFGFSSREYVLLHESSDTSELDRKEDEDDEEEEMVSDS
B5: Snrpb2 (protein, UniProt Q9CQI7 1-225, looked up)
U2 small nuclear …: MDIRPNHTIYINNMNDKIKKEELKRSLYALFSQFGHVVDIVALKTMKMRGQAFVIFKELGSSTNALRQLQGFPFYGKPMRIQYAKTDSDIISKMRGTFADKEKKKEKKKAKTMEQAAAAANKKPGQGTPNAANTQGTAAPNPQVPDYPPNYILFLNNLPEETNEMMLSMLFNQFPGFKEVRLVPGRHDIAFVEFENDGQAGAARDALQGFKITPSHAMKITYAKK
B6: Luc7l3 (protein, UniProt Q5SUF2 1-432, looked up)
Luc7-like protein 3: MISAAQLLDELMGRDRNLAPDEKRSNVRWDHESVCKYYLCGFCPAELFTNTRSDLGPCEKIHDENLRKQYEKSSRFMKVGYERDFLRYLQSLLAEVERRIRRGHARLALSQNQQSSGAAGPTGKNEEKIQVLTDKIDVLLQQIEELGSEGKVEEAQGMMKLVEQLKEERELLRSTTSTIESFAAQEKQMEVCEVCGAFLIVGDAQSRVDDHLMGKQHMGYAKIKATVEELKEKLRKRTEEPDRDERLKKEKQEREEREKEREREREERERKRRREEEEREKERARDRERRKRSRSRSRHSSRTSDRRCSRSRDHKRSRSRDRRRSRSRDRRRSRSHDRSERKHRSRSRDRRRSKSRDRKSYKHRSKSRDREQDRKSKEKEKKGSDDKKSSVKSSSREKQSEDTNPESKESDTKNEVNGTSEDIKSEGDTQSN
B7: Sap18 (protein, UniProt O55128 2-153, looked up)
Histone deacetylase complex …: AVESRVTQEEIKKEPEKPIDREKTCPLLLRVFTTNNGRHHRMDEFSRGNVPSSELQIYTWMDATLKELTSLVKEVYPEARKKGTHFNFAIVFMDLKRPGYRVKEIGSTMSGRKGTDDSMTLQSQKFQIGDYLDIAITPPNRAPPSSGRMRPY
B8: Ap2b1 (protein, UniProt Q9DBG3 2-937, looked up)
AP-2 complex subunit beta: TDSKYFTTNKKGEIFELKAELNNEKKEKRKEAVKKVIAAMTVGKDVSSLFPDVVNCMQTDNLELKKLVYLYLMNYAKSQPDMAIMAVNSFVKDCEDPNPLIRALAVRTMGCIRVDKITEYLCEPLRKCLKDEDPYVRKTAAVCVAKLHDINAQMVEDQGFLDSLRDLIADSNPMVVANAVAALSEISESHPNSNLLDLNPQNINKLLTALNECTEWGQIFILDCLSNYNPKDDREAQSICERVTPRLSHANSAVVLSAVKVLMKFLELLPKDSDYYNMLLKKLAPPLVTLLSGEPEVQYVALRNINLIVQKRPEILKQEIKVFFVKYNDPIYVKLEKLDIMIRLASQANIAQVLAELKEYATEVDVDFVRKAVRAIGRCAIKVEQSAERCVSTLLDLIQTKVNYVVQEAIVVIRDIFRKYPNKYESIIATLCENLDSLDEPDARAAMIWIVGEYAERIDNADELLESFLEGFHDESTQVQLTLLTAIVKLFLKKPSETQELVQQVLSLATQDSDNPDLRDRGYIYWRLLSTDPVTAKEVVLSEKPLISEETDLIEPTLLDELICHIGSLASVYHKPPNAFVEGSHGIHRKHLPIHHGSTDAGDSPVGTTTTTNLEQPQVIPSQGDLLGDLLNLDLGPPVNVPQVSSMQMGAVDLLGGGLDSLVGQSFIPSSVPATFAPSPTPAVVSSGLNDLFELSTGIGMAPGGYVAPKAVWLPAVKAKGLEISGTFTHRQGHIYMEMNFTNKALQHMTDFAIQFNKNSFGVIPSTPLAIHTPLMPNQSIDVSLPLNTLGPVMKMEPLNNLQVAVKNNIDVFYFSCLIPLNVLFVEDGKMERQVFLATWKDIPNENELQFQIKECHLNADTVSSKLQNNNVYTIAKRNVEGQDMLYQSLKLTNGIWILAELRIQPGNPNYTLSLKCRAPEVSQYIYQVYDSILKN

The molecules below were run against T1, nSR100 (assay: AP-MS nSR100 interaction partners from mouse N2A cells (Table 5)). Details: bait Srrm4.
Assay type: binding
Description: By applying affinity purification coupled to mass-spectrometry (AP-MS), several interaction nSR100 partner proteins were detected that provide insight into mechanisms of post-translational regulation of nSR100 levels.

Molecule | AvgP (average of the SAINT scores) | MaxP (maximal SAINT score)
B1 | 1 | 1
B2 | 1 | 1
B3 | 1 | 1
B4 | 1 | 1
B5 | 1 | 1
B6 | 1 | 1
B7 | 1 | 1
B8 | 1 | 1

Same assay, conditions: bait Srrm4, 0.1 added to prevent division by 0

Molecule | FoldChange between the prey Avg spectra of the bait and control purifications
B1 | 160
B2 | 145
B3 | 110
B4 | 70
B5 | 55
B6 | 7.33
B7 | 225
B8 | 5.13

Same assay, conditions: bait Srrm4, 2 replicates

Molecule | AvgSpec (average number of spectra per replicate)
B1 | 16
B2 | 14.5
B3 | 11
B4 | 7
B5 | 5.5
B6 | 55
B7 | 22.5
B8 | 79.5

Same assay, conditions: bait Srrm4, biological replicate 1 (first number of the cell), AP-MS

Molecule | Spectra (number of spectra for the prey in the purification of the bait)
B1 | 20
B2 | 11
B3 | 10
B4 | 5
B5 | 6
B6 | 45
B7 | 17
B8 | 83

Same assay, conditions: bait Srrm4, biological replicate 2 (second number of the cell), AP-MS

Molecule | Spectra (number of spectra for the prey in the purification of the bait)
B1 | 12
B2 | 18
B3 | 12
B4 | 9
B5 | 5
B6 | 65
B7 | 28
B8 | 76

Same assay, conditions: bait Srrm4, sum of spectra over 2 replicates

Molecule | SpecSum
B1 | 32
B2 | 29
B3 | 22
B4 | 14
B5 | 11
B6 | 110
B7 | 45
B8 | 159
